These are literature values, as cited in PMC2847397.

The target in the series is Asp408 (UniProt position 408, GLLVDDAIVVV). In words: chemical modification.

Consider “Multidrug efflux pump subunit AcrB (RND transporter) (Escherichia coli)”, for which the pKa (usually the pH at which an ionisable group is half protonated) was 7.4.
